{"source": "paper doi:10.1101/2024.07.11.603087", "about": "“Rational Design of a Flavoenzyme for Aerobic Nicotine Catabolism” (bioRxiv, 2024)", "biological_target": "the molecule itself", "assay": "SEC; Superdex 200 Increase 10/300 GL; molecular weight from elution, consistent with two molecules", "data": [{"protein": "PnaoΔN30 (residues 31 to 497) (enzyme, Pseudomonas putida S16, UniProt F8G0P1 31-496, looked up, Pnao, flavin-dependent pseudooxynicotine oxidase of Pseudomonas putida S16, N-terminal truncation of 30 residues, residues 31 to 497; Cloned into pET-28a between NcoI and XhoI, which would likely give a C-terminal His6 tag (surmised); also called pseudooxynicotine amine oxidase; source: E. coli BL21(DE3), purified (Ni2+-NTA, size-exclusion chromatography)) IASQLLTLSAPAEAAVKTNVGPSRAGVGYDVIVIGGGFAGVTAAREASRSGLKTLILEGRSRLGGRTFTSKLQNQKVELGGTWVHWTQPNVWTEIMHYGLEVEETVGLANPETVIWVTEDNVKRAPAAEAFEIFGSACNEYYKEARNIYPRPFEPFFERKKLQHVDGLSAADYLEKLPLTREQKDMMDSWLSGNGHNYPETIAYSEIMRWFALSNFNMPTMFDSIARYKIKTGTHSLLEAIMADGNSEVKLSTPVTKVNQDKDKVTVTTEDGVFTASAVIVAVPINTLHDIEYSPKLSAAKVDMGSQRHAGAGVKGYIRVKQNVGNVMTYAPARNKLTPFTSVFTDHVDESGTLLIAFSADPKLIDINDIKAVEKALQPLLPGVEVTASYGYDWNLDPFSKGTWCTYRPNQTTRYLTELQKREGRLFFAGSDMANGWRGFIDGAIENGREVGHQVATYLKRENDNA", "values": [{"measurement": "stoichiometry N", "result": 2}]}]}
